Values quoted from earlier work, collected in paper PMC6258485.

Target: CD55 (Homo sapiens) (UniProt P08174)
Chain of UniProt P08174 (P08174 35-353): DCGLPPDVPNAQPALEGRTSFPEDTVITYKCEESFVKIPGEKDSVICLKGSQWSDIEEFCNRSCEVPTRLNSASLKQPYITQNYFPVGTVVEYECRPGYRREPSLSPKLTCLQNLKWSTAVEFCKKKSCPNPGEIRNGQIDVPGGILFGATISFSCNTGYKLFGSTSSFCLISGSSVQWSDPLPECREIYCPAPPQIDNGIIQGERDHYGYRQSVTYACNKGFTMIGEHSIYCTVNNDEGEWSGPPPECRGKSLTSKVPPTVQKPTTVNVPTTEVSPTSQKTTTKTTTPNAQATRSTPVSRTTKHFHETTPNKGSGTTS

Which Kd does the source give for CD97 (from UniProt P48960) here?
Its Kd is 86 µM.
